# Laboratory results published in doi:10.1101/2021.02.26.433144v1 (biorxiv, 2021).
# Positions count from the first letter of the chain named. Names and notes keep the numbering of the source.
# T1: TtPPO (Thermothelomyces thermophilus, UniProt G2QLD3, G312N/Y316V)
# T1 sequence (G2QLD3 23-424 G312N/Y316V): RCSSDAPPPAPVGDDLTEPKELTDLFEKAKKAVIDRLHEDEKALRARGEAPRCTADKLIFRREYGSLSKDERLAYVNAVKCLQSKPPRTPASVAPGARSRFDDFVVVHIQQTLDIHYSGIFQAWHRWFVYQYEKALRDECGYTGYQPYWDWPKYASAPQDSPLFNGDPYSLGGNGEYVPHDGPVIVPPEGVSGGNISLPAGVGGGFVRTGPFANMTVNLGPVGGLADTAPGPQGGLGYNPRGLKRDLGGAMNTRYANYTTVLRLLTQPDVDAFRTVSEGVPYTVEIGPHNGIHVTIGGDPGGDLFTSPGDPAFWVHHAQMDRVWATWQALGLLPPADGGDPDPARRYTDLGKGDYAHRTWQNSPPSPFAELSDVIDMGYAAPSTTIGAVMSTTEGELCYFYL
# T2: TtPPO (Thermothelomyces thermophilus, UniProt G2QLD3, Y316V)
# T2 sequence (G2QLD3 23-424 Y316V): T1 sequence (G2QLD3 23-424 G312N/Y316V) with N290G
# T3: TtPPO (Thermothelomyces thermophilus, UniProt G2QLD3, G312N/L326A)
# T3 sequence (G2QLD3 23-424 G312N/L326A): T1 sequence (G2QLD3 23-424 G312N/Y316V) with V294Y, L304A
# T4: TtPPO (Thermothelomyces thermophilus, UniProt G2QLD3)
# T4 sequence (G2QLD3 23-424): T1 sequence (G2QLD3 23-424 G312N/Y316V) with N290G, V294Y
# T5: TtPPO (Thermothelomyces thermophilus, UniProt G2QLD3, L326A)
# T5 sequence (G2QLD3 23-424 L326A): T1 sequence (G2QLD3 23-424 G312N/Y316V) with N290G, V294Y, L304A
# T6: TtPPO (Thermothelomyces thermophilus, UniProt G2QLD3, G312N)
# T6 sequence (G2QLD3 23-424 G312N): T1 sequence (G2QLD3 23-424 G312N/Y316V) with V294Y
# B1: TtPPO (Thermothelomyces thermophilus ATCC 42464) (protein)
# chain: T1 sequence (G2QLD3 23-424 G312N/Y316V) with N290G, V294Y
# B2: TtPPO (Thermothelomyces thermophilus ATCC 42464; L326A) (protein)
# chain: T1 sequence (G2QLD3 23-424 G312N/Y316V) with N290G, V294Y, L304A
# B3: TtPPO (Thermothelomyces thermophilus ATCC 42464; Y316V) (protein)
# chain: T1 sequence (G2QLD3 23-424 G312N/Y316V) with N290G
# B4: TtPPO (Thermothelomyces thermophilus ATCC 42464; G312N/Y316V) (protein)
# chain: T1 sequence (G2QLD3 23-424 G312N/Y316V)
# B5: TtPPO (Thermothelomyces thermophilus ATCC 42464; G312N) (protein)
# chain: T1 sequence (G2QLD3 23-424 G312N/Y316V) with V294Y
# B6: TtPPO (Thermothelomyces thermophilus ATCC 42464; G312N/L326A) (protein)
# chain: T1 sequence (G2QLD3 23-424 G312N/Y316V) with V294Y, L304A
# Columns and labels:
# TtPPO [1] = biological target: T1, TtPPO; assay: spectrophotometric oxidation assay, non-linear regression; settings: 0.1 M sodium phosphate pH 7, 40 °C, 0-5 mM substrate
# TtPPO [2] = biological target: T2, TtPPO; assay: as above; settings: 0.1 M sodium phosphate pH 7, 40 °C, 0-5 mM substrate
# TtPPO [3] = biological target: T3, TtPPO; assay: as above; settings: 0.1 M sodium phosphate pH 7, 40 °C, 0-5 mM substrate
# TtPPO [4] = biological target: T4, TtPPO; assay: as above; settings: 0.1 M sodium phosphate pH 7, 40 °C, 0-5 mM substrate
# TtPPO [5] = biological target: T5, TtPPO; assay: as above; settings: 0.1 M sodium phosphate pH 7, 40 °C, 0-5 mM substrate
# TtPPO [6] = biological target: T6, TtPPO; assay: as above; settings: 0.1 M sodium phosphate pH 7, 40 °C, 0-5 mM substrate
# purified protein [7] = substrate: COc1ccccc1O; assay: purified protein; settings: 0.1 M sodium phosphate pH 7, 40 °C, 0-15 mM substrate
# purified protein [8] = substrate: N[C@@H](Cc1ccc(O)c(O)c1)C(=O)O; assay: purified protein; settings: 0.1 M sodium phosphate pH 7, 40 °C, 0-7 mM substrate
# purified protein [9] = substrate: Oc1cc(O)c2c(c1)O[C@H](c1ccc(O)c(O)c1)[C@@H](O)C2; assay: purified protein; settings: 0.1 M sodium phosphate pH 7, 40 °C, 0-10 mM substrate
# purified protein [10] = substrate: Oc1ccc(O)cc1; assay: purified protein; settings: 0.1 M sodium phosphate pH 7, 40 °C, 0-70 mM substrate
# purified protein [11] = substrate: Oc1ccccc1O; assay: purified protein; settings: 0.1 M sodium phosphate pH 7, 40 °C, 0-60 mM substrate
molecule,measurement,setting,value
Oc1ccc(Cl)cc1O [4-chlorocatechol],Km,TtPPO [1],4300 µM
same,Km,TtPPO [2],2200 µM
same,Km,TtPPO [3],500 µM
same,Km,TtPPO [4],1800 µM
same,Km,TtPPO [5],400 µM
same,Km,TtPPO [6],3500 µM
B1,Km,purified protein [7],4.6(0.6) mM
same,kcat,purified protein [7],39.3(2.2) min^-1
same,Km,purified protein [8],2.4(0.7) mM
same,kcat,purified protein [8],4.3(0.5) min^-1
same,Km,purified protein [9],33.7(14.0) mM
same,kcat,purified protein [9],1619.1(549.2) min^-1
same,Km,purified protein [10],59.1(6.0) mM
same,kcat,purified protein [10],67.5(3.9) min^-1
same,Km,purified protein [11],32.5(4.3) mM
same,kcat,purified protein [11],8.6(0.6) min^-1
B2,Km,purified protein [9],2.8(0.5) mM
same,kcat,purified protein [9],415.0(35.1) min^-1
B3,Km,purified protein [9],9.7(2.4) mM
same,kcat,purified protein [9],547.3(84.6) min^-1
B4,Km,purified protein [9],10.3(0.8) mM
same,kcat,purified protein [9],33.3(1.7) min^-1
B5,Km,purified protein [9],4.3(1.0) mM
same,kcat,purified protein [9],2.9(0.3) min^-1
B6,Km,purified protein [9],4.3(0.3) mM
same,kcat,purified protein [9],337.9(11.2) min^-1
